US20020156009A1 (published 2002)
Values belong to the molecule of their own block, whether it stands above or below them.

Tests used:
[1] = target: interleukin-1 (IL-1) receptor on human cells (human) (UniProt P14778); test: cell-based or functional assay
[2] = target: T1, bovine serum albumin (BSA) (bovine, UniProt P02769 25-607); test: FACS on human fibroblast cells (CCD 1089)
T1 construct: also called non-related protein
Method: A cell binding assay was carried out, in a modification of the procedure as described above in Example 7.1, to determine if IL-1 Hy2 of the invention binds to the interleukin-1 (IL-1) receptor. Briefly, fluorescent activated cell sorting (FACS) was used to measure cell binding of the recombinant protein (see Example 6) using fluorescent antibodies specific for the express tag on the IL-1 Hy2 recombinant protein. In each reaction, 10⁶ cells of human fibroblast cells (CCD 1089) were suspended in 100 μl of FACS buffer (containing distilled PBS, 3% calf serum and 0.01% azide). Cell binding reactions included 5 nM recombinant IL-1 Hy2 in 100 μl cell suspension. The cells were incubated on ice for one hour. The cells were pelleted by centrifugation, 200 μl of 0.2 mM BS3 (crosslinker) was added, and the cells were kept on ice for 30 minutes. Next, 10 μl […] pH 7.5 was added and the cells were incubated for 15 minutes on ice. The cells were pelleted by centrifugation, washed one time in FACS buffer, resuspended in 100 μl volume of FACS buffer, 2 μl primary antibody (anti-express tag antibody 1 mg/ml) was added, and incubation continued on ice for an additional 30 minutes. […] The cells were again pelleted by centrifugation, washed two times with FACS buffer, resuspended in 0.5 ml FACS buffer and analyzed on FACS.

T1 sequence (P02769 25-607 limits assumed): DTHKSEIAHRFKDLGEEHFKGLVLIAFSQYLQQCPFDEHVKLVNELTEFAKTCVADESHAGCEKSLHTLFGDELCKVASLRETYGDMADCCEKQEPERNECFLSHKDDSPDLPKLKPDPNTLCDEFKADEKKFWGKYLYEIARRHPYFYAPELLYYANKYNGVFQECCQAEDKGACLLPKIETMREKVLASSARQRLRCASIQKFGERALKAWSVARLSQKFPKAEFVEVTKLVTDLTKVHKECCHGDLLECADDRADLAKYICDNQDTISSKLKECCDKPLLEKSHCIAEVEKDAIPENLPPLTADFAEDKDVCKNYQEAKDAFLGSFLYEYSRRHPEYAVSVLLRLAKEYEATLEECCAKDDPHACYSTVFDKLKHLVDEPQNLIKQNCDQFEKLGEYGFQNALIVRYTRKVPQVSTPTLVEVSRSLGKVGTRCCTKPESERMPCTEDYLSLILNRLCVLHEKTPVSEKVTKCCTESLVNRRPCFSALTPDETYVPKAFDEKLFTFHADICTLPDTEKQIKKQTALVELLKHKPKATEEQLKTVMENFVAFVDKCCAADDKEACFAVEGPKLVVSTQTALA

inhibition of IL-1β induced PGE2 production, human fibroblasts (CCD 1098), 1 ng/ml IL-1β, IL-1 Hy2 at 1000 fold excess, PGE2 ELISA [1]: 40 to 60%
Molecule: IL-1 Hy2 (preparation used in the cell-based activity assays) (from UniProt Q8WWZ1 1-152) (ligand)

B1: interleukin-1 (IL-1) receptor on human cells (receptor, UniProt P14778 18-569, looked up)
chain: LEADKCKEREEKIILVSSANEIDVRPCPLNPNEHKGTITWYKDDSKTPVSTEQASRIHQHKEKLWFVPAKVEDSGHYYCVVRNSSYCLRIKISAKFVENEPNLCYNAQAIFKQKLPVAGDGGLVCPYMEFFKNENNELPKLQWYKDCKPLLLDNIHFSGVKDRLIVMNVAEKHRGNYTCHASYTYLGKQYPITRVIEFITLEENKPTRPVIVSPANETMEVDLGSQIQLICNVTGQLSDIAYWKWNGSVIDEDDPVLGEDYYSVENPANKRRSTLITVLNISEIESRFYKHPFTCFAKNTHGIDAAYIQLIYPVTNFQKHMIGICVTLTVIIVCSVFIYKIFKIDIVLWYRDSCYDFLPIKASDGKTYDAYILYPKTVGEGSTSDCDIFVFKVLPEVLEKQCGYKLFIYGRDDYVGEDIVEVINENVKKSRRLIIILVRETSGFSWLGGSSEEQIAMYNALVQDGIKVVLLELEKIQDYEKMPESIKFIKQKHGAIRWSGDFTQGPQSAKTRFWKNVRYHMPVQRRSPSSKHQLLSPATKEKLQREAHVPLG
notes: whole, on cells
binding result [2]: no binding (tested: same molarity as IL-1 Hy2 (5 nM))
